The assay has as its target His-Bub3 (recombinant full-length Bub3) (mouse, UniProt Q9WVA3 1-326). Put plainly: pull-down.

Chain of His-Bub3 (recombinant full-length Bub3) (Q9WVA3 whole entry): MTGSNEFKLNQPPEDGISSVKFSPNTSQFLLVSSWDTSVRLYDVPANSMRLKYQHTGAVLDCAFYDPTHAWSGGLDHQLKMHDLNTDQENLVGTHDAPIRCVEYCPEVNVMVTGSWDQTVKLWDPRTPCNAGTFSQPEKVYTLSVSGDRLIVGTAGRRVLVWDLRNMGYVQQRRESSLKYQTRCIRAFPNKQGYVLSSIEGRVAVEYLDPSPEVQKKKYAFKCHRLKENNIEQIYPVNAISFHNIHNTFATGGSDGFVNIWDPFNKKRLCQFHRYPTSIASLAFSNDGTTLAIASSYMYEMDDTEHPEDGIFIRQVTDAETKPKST

As for MTSRFGKTYSRKGGNGSSKFDEVFSNKRTTLSTKWGETTFMAKLGQKRPN (domain or fragment, mouse, UniProt Q65Z40 1-50, looked up) [GST-Wapl(1-50)], the binding result is “binds”.

(Values after PMC7141834 (Science Advances, 2020).)
